One molecule from PMC4027212 can be followed below.

The target in the data set is FANCI (human, UniProt Q9NVI1 1-1328). Description: EMSA. A general note: A gel shift assay detects complexes by their altered migration in electrophoresis.
FANCI, sequence (Q9NVI1 whole entry): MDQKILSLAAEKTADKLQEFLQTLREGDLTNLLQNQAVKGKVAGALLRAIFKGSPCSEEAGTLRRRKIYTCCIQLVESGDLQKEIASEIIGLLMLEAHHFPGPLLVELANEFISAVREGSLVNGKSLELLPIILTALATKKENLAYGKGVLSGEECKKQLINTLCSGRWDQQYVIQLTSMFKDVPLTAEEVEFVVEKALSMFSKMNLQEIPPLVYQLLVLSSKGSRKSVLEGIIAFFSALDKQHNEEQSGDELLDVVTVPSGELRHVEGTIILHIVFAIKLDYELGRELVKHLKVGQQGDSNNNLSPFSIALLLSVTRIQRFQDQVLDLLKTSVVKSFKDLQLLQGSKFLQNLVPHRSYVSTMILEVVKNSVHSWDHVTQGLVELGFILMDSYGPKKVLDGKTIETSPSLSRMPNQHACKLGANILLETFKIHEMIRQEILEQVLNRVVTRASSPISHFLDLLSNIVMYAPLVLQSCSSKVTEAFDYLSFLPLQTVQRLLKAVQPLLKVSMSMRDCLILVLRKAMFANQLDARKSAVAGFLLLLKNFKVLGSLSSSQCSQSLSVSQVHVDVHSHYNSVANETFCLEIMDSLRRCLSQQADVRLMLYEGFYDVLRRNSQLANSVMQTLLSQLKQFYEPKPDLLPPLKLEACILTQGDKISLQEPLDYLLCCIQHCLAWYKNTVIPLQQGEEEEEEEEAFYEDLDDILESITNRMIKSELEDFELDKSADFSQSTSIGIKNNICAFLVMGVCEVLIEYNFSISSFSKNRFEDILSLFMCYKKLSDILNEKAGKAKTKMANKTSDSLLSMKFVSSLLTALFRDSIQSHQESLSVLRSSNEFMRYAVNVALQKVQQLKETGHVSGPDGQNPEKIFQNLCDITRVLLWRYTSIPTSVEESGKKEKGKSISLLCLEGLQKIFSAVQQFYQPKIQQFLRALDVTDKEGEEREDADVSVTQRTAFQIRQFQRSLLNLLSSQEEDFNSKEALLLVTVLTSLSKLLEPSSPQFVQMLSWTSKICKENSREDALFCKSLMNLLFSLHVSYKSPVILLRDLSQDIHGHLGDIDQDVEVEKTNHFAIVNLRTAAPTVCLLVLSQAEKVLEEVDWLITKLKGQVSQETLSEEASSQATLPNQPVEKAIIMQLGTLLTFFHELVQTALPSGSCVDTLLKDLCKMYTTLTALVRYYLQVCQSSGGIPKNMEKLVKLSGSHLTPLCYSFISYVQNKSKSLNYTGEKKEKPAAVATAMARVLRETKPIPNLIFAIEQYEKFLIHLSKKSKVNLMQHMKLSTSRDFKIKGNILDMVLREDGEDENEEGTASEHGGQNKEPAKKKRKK

B1: Splayed arm (O2+O9) (structured_DNA)
DNA 1: AAAAAAAAAAAAAAAAAAAAAAAAAAAAAAAAAAAAAAAAGTAGAGTCGACGGTGCTGGGATCCAACATGTTTTCAATCTG
DNA 2: CAGATTGAAAACATGTTGGATCCCAGCACCGTCGACTCTACAAAAAAAAAAAAAAAAAAAAAAAAAAAAAAAAAAAAAAAA
On to B1, for which the binding result was “binds”.
